Experimental data: the DeepSol protein solubility set

Test: soluble on expression in E. coli; label from the status in PepcDB or PDB records

Sequence | soluble on expression in E. coli
MEDRNITEEDRVCPQLPEFDEQANVQTDLKKMKPGDAIGKNWKVVKAIQSDKGFNTIYVAEHVQKKKKMAAVKVERKTEAIKMLQFELFVLLTVEKKNQCKQFCKLFEKGNEKEYNWIAITLCGKSLRALRKNQPTGKLTVACGLSVAQQCLKGLEELHRMGFIHRNVAPSVFAIGRYTGDNQSDLRNIYILDFGFAHQYMIKDGTLKPPSAHPWKYVGSLRHMPRAAYSKVEFSRMEDLEMWFYMSVELVKGCLPWAHLKKPKEVHDYQKLCRNGLQMREMLGGLPPEFVDIMQIVDKLSFTDTPNYTEIYGLLTNAILFSGKNEFPYDWEEAEINEFKNPQKPSVEQAT | not soluble
MALVIAGERSGVGKTTVTLTLLASLCRRSAIVQSFKVGPDYIDPMFHTYVTGRACRNLDPVLTSEAYVQQCFARHYQESEYALVEGVMGLFDGIGRQEAGGQGAGGRENNFSTSHSALTTDFASTAHVARLLDLPVVLVIDCSRLSGSVAAIAHGYCSFDPRIKMAGVVLNRVGSDRHLSLLQDALKPLQLPILGVLRRQDDITIPDRHLGLIPTAELPELNAVINRLADLGDTCFDWQNLLPLLQAKEVGGREQGAGSRGQGAGEAGEAGGELTARFSPNPQSPIPNPQSPVPHPPKIAVARDRAFNFYYQDNLDLLQQLGAELVFWSPLTDGELPSGVRGMYFGGGFPEVFASQLAENSSARDAVKQAILAGMPTIAECGGLMYLCEQIIDFEGQSWPMVGVLPTSAAMGGRLTLGYRRAVALQDSLLVNVGTHIYGHEFHRSRLITAPTQPLFETYRYDCPENMGCEGWGFPKNIHASYVHLHWGESGEIPRQFIQQCAYFGETIDLVHMYLEHHHHHH | not soluble
MYEGEIAIGPVHSTMLEPHRLRLFIEDEIVKDAELTIGVNHRGVERLMEGLPVEKACILCEKICGICSHIHLWSAARVAEIGCNIEVPERANHIRIIVEELERLHSHTLLFGHAFEILGHETMSMRCFMLREPIMQVFFEISGSRVHYSCPIIGGIRPRCNISETQISHIHDKISQYEEGLTKFIERMLNDPMIISRVKDVGVMDRKTAAKFHAVGPTARGSNVKSDMRKWGWVPEYDPYDFDEILFDSGDVFARLAVRFYECLESVKIIRQALDALKDTSDKRIYNPNYELNEFKPINCYTEAQRGEQYYSYGLDDEGLVRQAKIRTPTATNLGAMEDIVKGYHVSDAELIIASCDPCFTCTDRLMVLKEPFKK | not soluble
MTIDTTNESDNSPTNSPGLEASARTFSLNASKMVRITDDYADEVFIEQNDVVIEKPRMDPLHVRKLMETWRKAARRARTNYIDPWDEFNIHEYPVQRAKRYRYSAIRKQWTEDIVDVRLHPDSFARGAMRECYRLKKCSKHGTSQDWSSNYVAKRYICQVDRRVLFDDVRLQMDAKLWAEEYNRYNPPKKIDIVQMCVIEMIDVKGSPLYHLEHFIEGKYIKYNSNSGFVSNAARLTPQAFSHFTFERSGHQMMVVDIQGVGDLYTDPQIHTVVGTDYGDGNLGTRGMALFFHSHRCNDICETMDLSNFELSPPEIEATEVAMEVAAKQKKSCIVPPTVFEARRNRISSECVHVEHGISMDQLRKRKTLNQSSTDLSAKSHNEDCVCPECIPVVEQLCEPCSEDEEDEEEDYPRSEKSGNSQKSRRSRMSISTRSSGDESASRPRKCGFVDLNSLRQRHDSFRSSVGTYSMNSSRQTRDTEKDEFWKVLRKQSVPANILSLQLQQMAANLENDEDVPQVTGHQFSVLGQIHIDLSRYHELGRFVEVDSEHKEMLEGSENDARVPIKYDKQSAIFHLDIARKCGILEAVLTSAHIVLGLPHELLKEVTVDDLFPNGFGEQENGIRDLEEFGSDLMEIAAEMGDKGAMLYMAHAYETGQHLGPNRRTDYKKSIDWYQRVVGFQEEEELDSDCGKTTFSSFAPLTRHEILAKMAEMYKEGGYGLNQDFERAYGLFNEAAEAAMEAMNGKLANKYYEKAEMCGE | not soluble
MGSDKIHHHHHHMENQDYTVRLTVQASPQEVFKQINRVTAWWTKNLQGDSEKLNDVFTVNFPGMHVSTQKLIECIPDKKVTWMVTDSHLTFIQRKTEWTDTTIQFDISRNVKHTEVLFTHKGLNPAIECYGDCAKGWDYFIKGSLFKLLTEGTGTPE | not soluble
GAMEAEKEFITMLKENQVDSTWSFSRIISELGTRDPRYWMVDDDPLWKKEMFEKYLSNR | soluble
MSAKMDEQALLALLRELAIDSQRVEHPAIASIEEYYAQGIELPDQGIKNLFLRNRKGTRHYLVLLDERKEADLPGIAEQIGESRLSFASVERLREYLGVELGCVTPFALVNDPQHRVEVLLDDAIRQDQLLGFHPLVNTATECIRYADLLAFLAHTGHEPRLIRA | not soluble
LITFRCRSYANVTMFGDIALEMIKMMGHSGTVPGSISAQDVPDALSKLTSALSAKNAAEENLPTDVDVDEKEEQVEPAVSLGRRAFPLIELLKSAIKEECEVMWD | not soluble
MGSDKIHHHHHHVEFIVGGATGEFYFLEMNTRLQVEHPVTEMITGLDLVEQMIRVAYGEKLKITQDDVKLQGWSMEARVYAEDPFRNFLPSTGRLTRYQPPAESQHVRVDTGVYEGGEISMFYDPMIAKLITYGPTRETAIAHMRQALDEYHIRGLSHNIPFLASLFSKERFVKGNLTTNFIAEEYPNGFTSSDLPSDDPTTLIAVAAAMKRRIVERNIQISGQFPGHEMKAPTEWTVLIGGTYHEVDVHPAPGGYAVVVEGEAVEVKTDWQIGDPLIRAKVDDRMVCVQVDRTGVSFRLSHSGVQAEVWVLTRPTAKLHKLMPFKAPPDMSKYLLSPMPGLLAKLLVEEGQEVKAGEPLAVVEAMKMENILKAERDAKIAKVHAKSGDSLAVDQKIIEFAS | not soluble
MTMEQLQTPPVVVEVCHTLDKKQLNAISKQVYETTLEAIERARRDSEVDSDLIYTRVGVRRFLDNCSEAYLDELIAKGLPTGRRLSDRKTCWSKHQLRSWLLENE | not soluble
SSAQFDHVTVIKKSNVYFGGLCISHTVQFEDGTKKTLGVILPTEQPLTFETHVPERMEIISGECRVKIADSTESELFRAGQSFYVPGNSLFKIETDEVLDYVCHLE | not soluble
MSLPSAQAPSLLNPTDDFAALGNIAWLWMNSPMHRDWPVHLLARNTLAPIQLGQYILLRCNDVPVAYCSWALMDADTELSYVMAPSSLGGNAWNCGDRLWIIDWIAPFSRDDNRALRRALAERHPDSVGRSLRVRRGGDTARVKEYRGRALDAAAARAQLDRYHAELIAGLRASNGGYAPREGHHHHHH | not soluble
MGSDKIHHHHHHMARTNPHRPFVPDPEQAALAPGVSGNDINGLGETAFRRPRMVYWAPDPDDIPHGSLQRYFYRQSAKEPDFASRRAARQAVLDAPLPLLADTVVIRDPADWTAALTQFVDSGLCDLTGVAEMNPDWVFEGHEIPQSRVIMIGVAHDYNVIATAPKPSAGLEVMTQYTRAAQAAKTIAGWLRQQGWQAEPLTGPMTGALAMIPPALACGFGELGKHGSIINPDLGASFRLSAVLSDAPFAPTPAQDHGIDGFCQNCHICQDACPPEALFAQKQTVRGARKWYVDFDKCLPFFNQTHGCAICIAECPWSRPGIGPNLAAKLARKRNRDATG | not soluble
MGSDKIHHHHHHMHFDAETVTHRGGLSKLRSLTKVNPRLAPNLAKTMLGGPRDHAVVEAFNAHAADKGFEFTSTWASNNIPFVTPLLRDFAAKRPAGEAIRYMEIGAYEGRNLAFMDWLLPDRLAVTVIDPWFDEALNPEEKYHAVEPRFRRNMDKCGFKSLSTHKGFSTYVLPQMLERGEQFDLIYVDGSHTALAVLIDLCFCASLLSVGGMMVLDDYWHDISEIGGPGVKQAVDQFHAAFGRYFEIAAVYRQVALVKTSEIPR | not soluble
MKHLVICIALLTVGACCFAQQKKVASHKAASGNPVFQGWYADPEGIIYDDTYWIFPTWSDLYENQTFFDCFSSKDLVNWTKHASVLDTTAVKWAKKAMWAPSVIRKNGKYYIFFGANDVHEGEIGGIGVAVSDRPEGPYKDLLGKPLINEIVNGAQPIDQFVYNDNGHYYMYYGGWGHCNVVQLNDDFTGLVPFEDGTVYKEVTPENYVEGPFMFKKDGKYYFMWSEGGWGGPDYSVAYAISDSPFGPFKRVAKILQQDPSVATSAGHHSLLHAPGTDDYYIVYHRRPLNDNARDHRVTCIDKMTFDKDGFINPVKMTFEGVPAQKIKKSKKK | not soluble
MSQLYAQEPRLGIPDSMLRYGTVVTMEQGDTVYDIALPQVWVKHKKYKSRQLTPQERQELWRLIRDVKRTLPYAKMIAATLIETYEYMETMPDEKSRQKHLKRMEKEMKQQYMPEMKRLTLRQGKLLIKLIDRQCAQSSYQLLKAFLGGWKAGWWNLFARFYGASLKTRYEPDKNPEDALTERIVLLVEEKRI | not soluble
MGYSSDTTPCCFAYIARPMPRAHIKEYFYTSGKCSNPAVVFVTRKNRQVCANPEKKWVREYINSLEMS | soluble
MKPKLAQWKELLAARHKKENDEEKEEEKPDGRPVTDVPYADVWREYGAKPYWFAGDYCLIRETVYPLDYQHGRYRLGALYEVHERWQEAPFSHPLSCRGFAVRDLFFFDTETMGLSSGAGNIMFLLGHARILGDFVTIRQHLLPYPGAEVALYQSFLSDVDYTTLVTYNGKAFDWPRLKTRHALVRNMVPKLPAFGHFDLYHAARRLWKDKLDSLRLSEVERHILHVERGDDVPGFLAPMMYKEFLQTPHPDRLMPVLRHNERDVLSLIALYIHLSVQLLEADRLADPKEQLAAARWFEAVGETAAARGVYEEASGKGAKEAQAAKWQLSLLYRKEKRYEEAALLWRDLLIHGNGYWKAKAGLELAKVYEHYFRDAAEAHRYAVMAYEAWRSLARMSRQHSEKEEAEWRRRLARLERKKNG | not soluble
EDSKALDEVVVVAFGTQKKESMISSIETIKPAELKVPSSNLTTALAGRMSGVIAYQRSGEPGKDNADFFIRGVTTFGYKKDPLILIDGIETTTTELARLQPDDIAAFSILKDATATALYGARGANGVIQVATKEGKEGA | not soluble
MAKTPGLNLSISERASNRLAEIYRNSKENLRISVESGGCHGFQYNLTLEPATKPDIKNDVKDKEFSDDLDDDDSKDIIYVLPEDKGRVIIDSKSLNILNNTTLTYTNELIGSSFKIINGSLKSSCGCGSSFDIEN | not soluble
MGSDKIHHHHHHMNIFQQLEHSKAPAAVRLVMVIDYIAKRDEASFTEICTDLSIPKSSVHHLLEVLVVTQLLRQRADGRYVLGLRLFELGGLVIKNIDLRKDTINFMHELVKETELTCHLGIMDGDNGFFLSKVESPKAIVKTSWEGKKIVFNRMSLGKVLVAWLPQERIESLIADCSFEYLTPRTITNKDDFLQHLKTVKEQGWAIDDGEDIEEICCMAAPIFNQNGDVIAAIGVNGMQSQYANGKKEKHLASLIKTSKAITAHINSRNIDIR | not soluble
MVKEGWMVHYTSRDNLRKRHYWRLDSKCLTLFQNESGSKYYKEIPLSEILRISSPRDFTNISQGSNPHCFEIITDTMVYFVGENNGDSSHNPVLAATGVGLDVAQSWEKAIRQALM | soluble
MTDWLYRYPKLYPGFLLKRYKRFFADVQLTSGEVVTAHCPNTGPMTGVSKIGSPVQLSQSDNPNRKLAYTLELIQVQEQEPTWVGVNTALPNRVIKLALEKFLFPELRDYTQVKGEVIYGKDKKSRVDFYLTGSEKQSPIYLEVKNTTWTQGNLALFPDTETTRGQKHLRELMEVLPHSRAVMLYFINRGDCPEFAPGDSTDPVYGKLLRQAITVGLEVLPCRFDVSPEGIRYLGLAKLKT | not soluble
